Laboratory results taken from paper PMC10719372, “Molecular mechanism of phospholipid transport at the bacterial outer membrane interface” (Nature Communications, 2023).

B1: OmpC (natural protein, E. coli, UniProt P06996 22-367, looked up)
chain: AEVYNKDGNKLDLYGKVDGLHYFSDNKDVDGDQTYMRLGFKGETQVTDQLTGYGQWEYQIQGNSAENENNSWTRVAFAGLKFQDVGSFDYGRNYGVVYDVTSWTDVLPEFGGDTYGSDNFMQQRGNGFATYRNTDFFGLVDGLNFAVQYQGKNGNPSGEGFTSGVTNNGRDALRQNGDGVGGSITYDYEGFGIGGAISSSKRTDAQNTAAYIGNGDRAETYTGGLKYDANNIYLAAQYTQTYNATRVGSLGWANKAQNFEAVAQYQFDFGLRPSLAYLQSKGKNLGRGYDDEDILKYVDVGATYYFNKNMSTYVDYKINLLDDNQFTRDAGINTDNIVALGLVYQF
notes: OmpC, outer membrane porin, E. coli; In the pull-down with MlaA variants some samples may have held OmpC-His (pDSW206ompC-His) in place of untagged OmpC; also called osmoporin OmpC; trimeric OmpC; source: E. coli BL21(λDE3) ΔompF::kan, over-expressed from pDSW206ompC; in DDM-solubilised lysate (pull-down) and purified with its partners (Ni-NTA, SEC)
B2: MlaA^Q205C (of the disulfide-trapped OmpC-MlaA-MlaC complex) (natural protein, E. coli, UniProt P76506 18-251, looked up)
chain: CASSGTDQQGRSDPLEGFNRTMYNFNFNVLDPYIVRPVAVAWRDYVPQPARNGLSNFTGNLEEPAVMVNYFLQGDPYQGMVHFTRFFLNTILGMGGFIDVAGMANPKLQRTEPHRFGSTLGHYGVGYGPYVQLPFYGSFTLRDDGGDMADGFYPVLSWLTWPMSVGKWTLEGIETRAQLLDSDGLLRCSSDPYIMVREAYFQRHDFIANGGELKPQENPNAQAIQDDLKDIDSE
modifications: engineered MlaA^Q205C-MlaC^V171C disulfide bond
notes: MlaA, OM lipoprotein, E. coli; also called MlaA^Cys

Columns and labels:
[1] = molecular target: the molecule itself; experiment: SEC-MALS; SEC-purified disulfide-trapped OmpC3-MlaA^Cys-MlaC^Cys-His at 3 mg/ml, Superdex 200 Increase 10/300 GL, TBS pH 8.0 with 0.025% DDM, protein-conjugate analysis
OmpC [2] = molecular target: B1; experiment: cryo-EM structure; disulfide-trapped OmpC3-MlaA^Q205C-MlaC^V171C-His in MSP2N2 nanodiscs with E. coli polar lipids; 2.9 Å overall, density of MlaC limited to 5.0-7.0 Å; details: both partners purified
OmpC [3] = molecular target: B1; experiment: SEC-MALS; SEC-purified disulfide-trapped OmpC3-MlaA^Cys-MlaC^Cys-His at 3 mg/ml, Superdex 200 Increase 10/300 GL, TBS pH 8.0 with 0.025% DDM, protein-conjugate analysis; details: both partners purified

Row | stoichiometry N (OmpC [2]) | stoichiometry N (OmpC [3]) | Binder | stoichiometry N [1]
1 |  |  | B1 | 3
2 | 1 to 3 per OmpC trimer | ~2 per OmpC trimer | B2 | 
